Publication PMC10397247

Tests used:
Assay in all cases: two-hybrid library CCNG1;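 further: natural log of median RNA to DNA barcode read ratio; higher means stronger binding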
P2bH1 = molecular target: T1, P2bH1
T1 chain: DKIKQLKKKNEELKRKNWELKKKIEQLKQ

P3bH1 = molecular target: T2, P3bH1
T2 chain: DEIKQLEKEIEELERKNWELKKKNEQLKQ

P6bH1 = molecular target: T3, P6bH1
T3 chain: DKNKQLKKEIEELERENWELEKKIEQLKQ

P4bH1 = molecular target: T4, P4bH1
T4 chain: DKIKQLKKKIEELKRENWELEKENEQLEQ

P9bH1 = molecular target: T5, P9bH1
T5 chain: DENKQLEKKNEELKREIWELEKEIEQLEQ

P8bH1 = molecular target: T6, P8bH1
T6 chain: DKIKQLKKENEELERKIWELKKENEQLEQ

P7bH1 = molecular target: T7, P7bH1
T7 chain: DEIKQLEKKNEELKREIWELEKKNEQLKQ

P5bH1 = molecular target: T8, P5bH1
T8 chain: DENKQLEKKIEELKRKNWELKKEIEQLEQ

interaction score (P2bH1): -0.432 | interaction score (P3bH1): -0.234 | interaction score (P6bH1): -1.16 | interaction score (P4bH1): -0.137 | interaction score (P9bH1): 0.693 | interaction score (P8bH1): -0.331 | interaction score (P7bH1): 0.231 | interaction score (P5bH1): -0.796
Binder: DKIKQLKKKNEELKRKNWELKKKIEQLKQ [P2bH1]
